The target in the experiment is T1, purified Wnt5a protein (mouse) (mouse, UniProt P22725 62-380).
T1 construct: Wnt5a, mouse; The protein needs detergent to stay in solution; also called mWnt5a
T1 sequence (looked up): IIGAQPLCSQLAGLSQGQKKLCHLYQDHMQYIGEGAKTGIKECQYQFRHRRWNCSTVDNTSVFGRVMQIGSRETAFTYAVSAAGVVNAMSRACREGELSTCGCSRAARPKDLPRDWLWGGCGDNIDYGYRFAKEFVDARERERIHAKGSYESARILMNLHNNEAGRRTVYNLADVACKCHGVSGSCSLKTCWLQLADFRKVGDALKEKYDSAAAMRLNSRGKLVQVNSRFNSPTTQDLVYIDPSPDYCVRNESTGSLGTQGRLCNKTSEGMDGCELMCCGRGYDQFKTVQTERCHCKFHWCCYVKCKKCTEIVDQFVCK
As to the kind of experiment: pull-down; purified CRD-IgG proteins bound to protein A-Sepharose beads (4 h, 4 °C), incubated overnight at 4 °C with purified Wnt5a protein, washed 4 times with TNT buffer (50 mM Tris-HCl, 150 mM NaCl, 1% Triton X-100), Western blot. The conditions noted are these: both partners purified. Background: A western blot detects proteins with antibodies after separation by electrophoresis.

B1: mRor2 CRD-IgG (Fc fusion)
chain: not shown
notes: source: 293 cells stably secreting the protein, purified from serum-free conditioned media (protein A column); not shown: immunoglobulin heavy chain domain (IgG), C-terminal, kept
B1: the binding result is reported as “binds”.

B2: mRor2 NT CRD-IgG (Fc fusion)
chain: not shown
notes: signal peptide in the construct; source: 293 cells stably secreting the protein, purified from serum-free conditioned media (protein A column); not shown: immunoglobulin heavy chain domain (IgG), C-terminal, kept
On to B2, for which the binding result is recorded as “binds”.

The values are drawn from PMC1420652, “Purified Wnt5a Protein Activates or Inhibits β-Catenin–TCF Signaling Depending on Receptor Context” (PLoS Biology, 2006).
